Laboratory results: patent US20030148958A1 (PROCTER AND GAMBLE, published 2003)
Ends that are not written are not given here.

Tests used:
[1] = target: T1, corticotropin releasing factor 2 receptor; experiment: cell-based or functional assay
T1 sequence (Q13324 whole entry, species assumed, looked up): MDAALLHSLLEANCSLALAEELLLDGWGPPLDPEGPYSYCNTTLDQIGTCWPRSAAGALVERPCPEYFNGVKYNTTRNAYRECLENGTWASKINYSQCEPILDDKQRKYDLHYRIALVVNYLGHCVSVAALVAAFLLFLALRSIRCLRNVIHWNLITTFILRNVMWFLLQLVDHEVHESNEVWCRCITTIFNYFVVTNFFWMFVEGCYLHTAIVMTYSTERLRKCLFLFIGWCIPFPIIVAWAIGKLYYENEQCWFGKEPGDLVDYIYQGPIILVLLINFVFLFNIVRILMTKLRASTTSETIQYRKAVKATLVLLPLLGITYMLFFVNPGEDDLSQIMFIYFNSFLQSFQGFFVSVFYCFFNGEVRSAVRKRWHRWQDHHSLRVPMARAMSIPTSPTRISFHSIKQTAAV

[2] = target: corticotropin releasing factor 1 receptor; experiment: cell-based or functional assay
Throughout, for CRF1R Emax: reference of the scale not given here.
Throughout, for CRF2R Emax: reference of the scale not given here.

Row | Binder | CRF2R EC50 [1] | CRF2R Emax [1] | CRF1R EC50 [2] | CRF1R Emax [2]
1 | IVLSLDVPIGLLQILLEQEKARAAREQATTNARILARV-NH2 [SEQ ID NO 121] | 5.67 nM |  |  | 
2 | SQEPPISLDLPLELLREVLEMTKADQLAQQAHSNRKLLDIA-NH2 [SEQ ID NO 89] | 100 nM | 12.7% |  | 
3 | ZGPPISIDLSIGLLRKMIEIEKQEKEKQQAANNRLLLDTI (C-terminal amide) [SEQ ID NO 25] | 81 nM | 81.9% | 677 nM | 92.3%
4 | ZGPPISIDLPIFLLRKMIEIEKQEKEKQQAANNRLLLDTI (C-terminal amide) [SEQ ID NO 29] | 16 nM | 100% | > 1000 nM | 79%
5 | ZGPPISIDLPTILLRKMIEIEKQEKEKQQAANNRLLLDTI (C-terminal amide) [SEQ ID NO 50] | 19 nM | 94% | > 1000 nM | 42%
6 | ZGPPISIDLPTVLLRKMIEIEKQEKEKQQAANNRLLLDTI (C-terminal amide) [SEQ ID NO 46] | > 100 nM | 100% | > 1000 nM | 17%
7 | ZGPPISIDLPYYLLRKMIEIEKQEKEKQQAANNRLLLDTI (C-terminal amide) [SEQ ID NO 40] | 6.95 nM | 93% | 102 nM | 99%
8 | ZGPPISIDLPTTLLRKMIEIEKQEKEKQQAANNRLLLDTI (C-terminal amide) [SEQ ID NO 42] | > 100 nM | 88% | > 1000 nM | 10%
9 | ZGPPISIDLPIALLRKMIEIEKQEKEKQQAANNRLLLDTI (C-terminal amide) [SEQ ID NO 47] | > 100 nM | 66% | 1000 nM | 12%
10 | ZGPPISIDLPIVLLRKMIEIEKQEKEKQQAANNRLLLDTI (C-terminal amide) [SEQ ID NO 31] | 30.8 nM | 100% | > 1000 nM | 18%
11 | ZGPPISIDLPEYLLRKMIEIEKQEKEKQQAANNRLLLDTI (C-terminal amide) [SEQ ID NO 48] | 100 nM | 14% | 1000 nM | 21%
12 | ZGPPISIDLPKYLLRKMIEIEKQEKEKQQAANNRLLLDTI (C-terminal amide) [SEQ ID NO 58] | 71.6 nM | 100% | > 100 nM | 16%
13 | ZGPPISIDLPIDLLRKMIEIEKQEKEKQQAANNRLLLDTI (C-terminal amide) [SEQ ID NO 28] | 100 nM | 15% | > 1000 nM | 2%
14 | ZGPPISIDLPAYLLRKMIEIEKQEKEKQQAANNRLLLDTI (C-terminal amide) [SEQ ID NO 32] | 20.2 nM | 98% | 606 nM | 94%
15 | ZGPPISIDLPILLLRKMIEIEKQEKEKQQAANNRLLLDTI (C-terminal amide) [SEQ ID NO 35] | 15.6 nM | 88% | > 1000 nM | 74%
16 | ZGPPISIDLPTNLLRKMIEIEKQEKEKQQAANNRLLLDTI (C-terminal amide) [SEQ ID NO 59] | > 100 nM | 27% | > 100 nM | 10%
17 | ZGPPISIDLPQVLLRKMIEIEKQEKEKQQAANNRLLLDTI (C-terminal amide) [SEQ ID NO 197] | 48.1 nM | 94% |  | 
18 | ZGPPISIDLPTWLLRKMIEIEKQEKEKQQAANNRLLLDTI (C-terminal amide) [SEQ ID NO 41] | 18.3 nM | 100% | > 1000 nM | 43%
19 | ZGPPISIDLPVYLLRKMIEIEKQEKEKQQAANNRLLLDTI (C-terminal amide) [SEQ ID NO 39] | 58.2 nM | 94% | 1000 nM | 63%
20 | ZGPPISIDLPSYLLRKMIEIEKQEKEKQQAANNRLLLDTI (C-terminal amide) [SEQ ID NO 56] | 50.4 nM | 87% | > 100 nM | 14%

Row | Binder | CRF2R EC50 [1] | CRF2R Emax [1] | CRF1R EC50 [2] | CRF1R Emax [2]
21 | ZGPPISIDLPIPLLRKMIEIEKQEKEKQQAANNRLLLDTI (not fully specified; C-terminal amide) [SEQ ID NO 26] | 91.8 nM | 86% | > 1000 nM | 16%
22 | ZGPPISIDLPQQLLRKMIEIEKQEKEKQQAANNRLLLDTI (C-terminal amide) [SEQ ID NO 198] | 29.9 nM | 100% |  | 
23 | ZGPPISIDLPIRLLRKMIEIEKQEKEKQQAANNRLLLDTI (C-terminal amide) [SEQ ID NO 38] | 71.9 nM | 91% | > 1000 nM | 11%
24 | ZGPPISIDLPIKLLRKMIEIEKQEKEKQQAANNRLLLDTI (C-terminal amide) [SEQ ID NO 34] | > 100 nM | 45% | > 1000 nM | 11%
25 | ZGPPISIDLSLELLRKMIEIEKQEKEKQQAANNALLLATI (C-terminal amide) [SEQ ID NO 30] | 18.7 nM | 85.5% | 100 nM | 100%
26 | ZGPPISIDLPTPLLRKMIEIEKQEKEKQQAANNRLLLDTI (C-terminal amide) [SEQ ID NO 52] | > 100 nM | 10% | > 1000 nM | 13%
27 | ZGPPISIDLPQYLLRKMIEIEKQEKEKQQAANNRLLLDTI (C-terminal amide) [SEQ ID NO 27] | 10.7 nM | 96% | 325 nM | 100%
28 | ZGPPISIDLPTDLLRKMIEIEKQEKEKQQAANNRLLLDTI (C-terminal amide) [SEQ ID NO 49] | > 100 nM | 37% | > 1000 nM | 15%
29 | ZGPPISIDLPPYLLRKMIEIEKQEKEKQQAANNRLLLDTI (C-terminal amide) [SEQ ID NO 57] | > 100 nM | 46% | > 100 nM | 12%
30 | ZGPPISIDLPIILLRKMIEIEKQEKEKQQAANNRLLLDTI (C-terminal amide) [SEQ ID NO 36] | 14.8 nM | 73% | > 1000 nM | 33%
31 | ZGPPISIDLPINLLRKMIEIEKQEKEKQQAANNRLLLDTI (C-terminal amide) [SEQ ID NO 37] | > 100 nM | 51% | > 1000 nM | 5%
32 | ZGPPISIDLPTRLLRKMIEIEKQEKEKQQAANNRLLLDTI (C-terminal amide) [SEQ ID NO 60] | > 100 nM | 44% | > 100 nM | 8%
33 | ZGPPISIDLPWYLLRKMIEIEKQEKEKQQAANNRLLLDTI (C-terminal amide) [SEQ ID NO 55] | 7.95 nM | 95% | 11.6 nM | 92%
34 | ZGPPISIDLPTFLLRKMIEIEKQEKEKQQAANNRLLLDTI (C-terminal amide) [SEQ ID NO 44] | 19.1 nM | 87% | 944 nM | 64%
35 | ZGPPISIDLPTLLLRKMIEIEKQEKEKQQAANNRLLLDTI (C-terminal amide) [SEQ ID NO 51] | 20.6 nM | 100% | > 1000 nM | 48%
36 | ZGPPISIDLPTSLLRKMIEIEKQEKEKQQAANNRLLLDTI (C-terminal amide) [SEQ ID NO 43] | > 100 nM | 67% | > 1000 nM | 10%
37 | ZGPPISIDLPTKLLRKMIEIEKQEKEKQQAANNRLLLDTI (C-terminal amide) [SEQ ID NO 45] | > 100 nM | 44% | > 1000 nM | 7%
38 | ZGPPISIDLPDYLLRKMIEIEKQEKEKQQAANNRLLLDTI (C-terminal amide) [SEQ ID NO 54] | 100 nM | 11% | 1000 nM | 10%
39 | IVLSLDVPIGLLQILLEQEKARAAREQATTNARILARV-NH2 [SEQ ID NO 3] | 12.1 nM |  |  | 
40 | IVLSLDVPIGLLQILLEQEKARAAREQATTNARILARV-NH2 [SEQ ID NO 107] | 12.1 nM |  |  | 
